Data published in PMC5673899, “Structural basis for receptor recognition of pollen tube attraction peptides” (Nature Communications, 2017).
Entries after “also recorded” stand apart in the source; their conditions may differ.

What was measured:
[1] = system: prk6 pollen tubes transformed with PRK6 D234A; assay: Gelatin-beads assay, prk6 pollen tubes transformed with D234A PRK6; type: cell-based, Arabidopsis; conditions: beads with 250 nM wild-type AtLURE1.2; 10–23 pollen tubes per assay, three assays
Procedure: Attraction activities of mutant AtLURE1.2 peptides were examined for semi-in-vivo pollen tubes growing through cut, pollinated pistils by gelatin-beads assay and wavy assay, [20]. For the gelatin-beads assay, pollen tubes were grown on solid pollen germination medium poured into a mold made with 1-mm thick silicone rubber and cover glasses. After hand-pollination, the topside cover glass was removed and the medium was covered with hydrated silicone oil (KF-96–100CS; Shin-Etsu). Attraction of pollen tubes toward the peptide was evaluated using AtLURE1 peptide containing gelatine beads under an inverted microscope (IX71, Olympus) equipped with a micro-manipulator (Narishige). For the AtLURE1-responsive wavy assay, the purified AtLURE1.2 peptide was added to solid pollen germination medium, which was melted at 70 °C and then cooled to a certain degree. The mixture was mixed by vortexing and poured into the mold. Pollen tubes of each genotype were grown through cut styles, as mentioned above. Each peptide (25 μM in 10 mM Bis-Tris (pH 6.0) and 100 mM NaCl) was diluted to 250 nM by cultivation medium in both assays. To examine reactivity of PRK6 mutants to AtLURE1.2, constructs for PRK6 mutants, D234A, N239A, and ΔN239I240, were generated by site-directed mutagenesis from a wild-type PRK6 vector, pPZP221-pPRK6::PRK6-mRuby2 (ref. [20]). […]

SUMO-tagged MDIS1LRR = assay: Gel filtration assay with SUMO-tagged MDIS1^LRR with or without MIK1^LRR; type: binding; conditions: in the presence or absence of MIK1LRR, peer review file
Description: We thank the reviewer for his/her high evaluation of our work and constructive […]
We have conducted more experiments including functional analysis of […]
bind to either MIK1 or MIK2 in their binding experiments. Considering the importance of genetic data published by other groups, I recommend that the authors conduct more binding experiments using MDIS1, MDIS2, and mixtures thereof with […]
interaction of AtLURE1.2 with the extracellular LRR domain of MIK1 (MIK1LRR) or MIK2 (MIK2LRR). All the proteins were purified from insect cells. As shown in […]
AtLURE1.2 in the assays, because the AtLURE1.2 and MIK1LRR or MIK2LRR were well separated in gel filtration. This is strikingly different from PRK6LRR with AtLURE1.2, which co-migrated when tested using the same assay. To further test interaction of AtLURE1.2 with MIK1LRR or MIK2LRR, we used ITC to quantify the binding affinity between the insect cell-generated AtLURE1.2 and MIK1LRR or […]
binding of AtLURE1.2 to MIK1LRR or MIK2LRR (Supplementary Fig. 6). In contrast to […]
into the MIK1LRR- or MIK2LRR-containing cell (Supplementary Fig. 6).
We then tested whether LURE1.2 interacts with MIK1LRR or MIK2LRR in the presence of the extracellular LRR domain of MDIS1 (MDIS1LRR). We therefore tried to purify MDIS1LRR from insect cells. However, although several constructs had been tested, expression of MDIS1LRR protein alone was undetectable. […]

B1: AtLURE1.2: mature form of AtLURE1.2 (residues 20–90), defensin-like cysteine-rich peptide expressed in insect cells (protein)
chain: TLINGSSDEERTYSFSPTTSPFDPRSLNQELKIGRIGYCFDCARACMRRGKYIRTCSFERKLCRCSISDIK
modifications: left off: His6, N-terminal, cleaved | SUMO, N-terminal, cleaved
notes: mature form of AtLURE1.2 (residues 20–90), defensin-like cysteine-rich peptide expressed in insect cells
[1]
  pollen tube attraction: significantly lower than those in wild-type and N239A PRK6 pollen tubes; also recorded: significantly reduced
SUMO-tagged MDIS1LRR
  interaction in gel filtration: no interaction
SUMO-tagged MDIS1LRR; listed as LURE1.2
  interaction in gel filtration: well separated from the two proteins
